Assay results from patent US20150344571A1 (KANGWON NATIONAL UNIVERSITY UNIVERSITY INDUSTRY COOPERATION …, published 2015).

Experiments:
[1] = molecular target: T1, human L1CAM (purified extracellular domain) (human, UniProt P32004 20-1112); experiment: competitive ELISA
T1 construct: range 1-1112; Expressed in HEK293T from pJK-dhfr2-L1-monomer; The stated range 1-1112 begins at residue 1 of the precursor; no signal peptide limits are stated; also called human L1CAM antigen
Description: (§1) The affinities of the purified antibodies for human L1CAM were measured by competitive ELISA. Human L1CAM was prepared at a density of 1×10⁻⁶ M and serially diluted to 1×10⁻¹¹ M using a PBS buffer solution. Respective antibodies were prepared by diluting them in PBS buffer solution at particular concentrations according to their binding capacity. The antigens and antibodies thus diluted were reacted with each other at the same volume ratio, and allowed to react at room temperature for 2 hours.
(§2) 96-well plates (MaxiSorp, Nunc) were coated using the purified human L1CAM which were diluted in a buffer solution (15 mM Na₂CO₃, 34.84 mM NaHCO₃, pH 9.6) at a concentration of 100 ng/well, at 4° C. overnight. Next day, the wells were washed with 0.05% PBS-T buffer solution twice. Difco skim milk (BD) was dissolved in 0.05% PBS-T buffer solution at a concentration of 2%, and 200 μl thereof was added to each well, followed by incubation at room temperature for 1 hour. Then, the wells were washed with 0.05% PBS-T buffer solution twice. To the plate, 100 it of the antigen/antibody reactant that were reacted for 2 hours was added and allowed to react at room temperature for 1 hour. Then, the wells were washed with 0.05% PBS-T buffer solution three times to remove non-antigen bound antibodies. Goat anti-human IgG(Fc)-HRP (Pierce, 1/5000) that specifically recognizes the Fc region of human antibody was added as a secondary antibody, and allowed to react at room temperature for 1 hour. Then, the wells were washed with 0.05% PBS-T buffer solution four times to remove the remaining secondary antibodies. […] Then, 50 μl of 2.5 M H₂SO₄ solution was added to each well to terminate the enzymatic reaction. After terminating the reaction, absorbance was measured at 450 nm (VERSAmax microplate reader, Molecular Devices).
Affinity of the purified Ab417 antibody for human L1CAM was measured by competitive ELISA in the same manner as in Example 3-2.

[2] = molecular target: T2, mouse L1CAM (purified extracellular domain with S1 tag) (mouse, UniProt P11627 20-1123); experiment: Octet RED (called SPR in the filing), antibody on AHC sensor, soluble mouse L1CAM
T2 construct: extracellular domain; also called mouse L1CAM monomer; not shown: S1 tag from the pJEX2T vector
Description: (§3) In addition to the competitive ELISA, SPR (surface […] resonance) was measured using Octet RED (ForteBio, USA) according to the manufacturer's protocol to determine the affinities of Ab417 antibody and Ab4M antibody for human and mouse L1CAM. […] AHC (anti-human IgG Fc capture) sensor chip was used to analyze binding kinetics of the antibodies to antigens by examining changes in refractive index which occurs upon association and dissociation of antibody and antigen while transferring the sensor chip to PBS solution, antibody, PBS solution, antigen, and PBS solution in this order.

[3] = molecular target: T1, human L1CAM (purified extracellular …); experiment: Octet RED (called SPR in the filing), antibody on AHC sensor, soluble human L1CAM
Description: as §3

[4] = molecular target: T1, human L1CAM (purified extracellular …); experiment: competitive ELISA (soluble human L1CAM against coated human L1CAM)
Description: as §1, §2

[5] = molecular target: T2, mouse L1CAM (purified extracellular …); experiment: competitive ELISA with mouse L1CAM
[6] = molecular target: T1, human L1CAM (purified extracellular …); experiment: Octet RED, antibody on AHC sensor, soluble human L1CAM
Description: (§4) Affinities of Ab417, Ab417-H6L2 mutant, and Ab417-H6L6 mutant for human and mouse L1CAM were examined using Octet RED (fortebio). […] Each 200 it thereof was added to opaque 96-well plate to prevent light transmission. AHC (anti-human IgG Fc capture) sensor chip was used to analyze binding kinetics of the antibodies to antigens by examining changes in refractive index which occurs upon association and dissociation of antibody and antigen while transferring the sensor chip to PBS solution, antibody, PBS solution, antigen, and PBS solution in this order.
(§5) Despite amino acid substitution, there were no changes in the affinities of these antibodies (Table 4), and there were also no changes in the affinities of these antibodies for mouse L1CAM (Table 5).

[7] = molecular target: T2, mouse L1CAM (purified extracellular …); experiment: Octet RED, antibody on AHC sensor, soluble mouse L1CAM
Description: as §4, §5

[8] = molecular target: T2, mouse L1CAM (purified extracellular …); experiment: indirect ELISA on coated mouse L1CAM, mutant IgG in culture supernatant, relative to Ab4
Text: The expression vectors of respective mutants were obtained in a large amount, and transfected to human embryonic kidney HEK293T cells using Lipofectamine 2000 (invitrogen), followed by culture. The transfected cells produce and secrete whole antibodies out of the cells, and the culture supernatants were collected and subjected to indirect ELISA as follows. 96-well plates (MaxiSorp, Nunc) were coated using the purified extracellular domain of human L1CAM (hereinafter, referred to as ‘human L1CAM’) and the extracellular domain of purified mouse L1CAM (hereinafter, referred to as ‘mouse L1CAM’) as antigens, which were diluted in a buffer solution (15 mM Na₂CO₃, 34.84 mM NaHCO₃, pH 9.6) at a concentration of 100 ng/well, at 4° C. overnight. Next day, the plate was washed with 0.05% PBS-T buffer solution twice. Difco skim milk (BD) was dissolved in 0.05% PBS-T buffer solution at a concentration of 2%, and 200 μl thereof was added to each well, followed by incubation at 37° C. for 1 hour. Then, the wells were washed with 0.05% PBS-T buffer solution twice. To the plate, 100 μl of the supernatant was added and allowed to react at 37° C. for 1 hour. Then, the wells were washed with 0.05% PBS-T buffer solution three times to remove non-antigen bound antibodies. Goat anti-human IgG(Fc)-HRP (Pierce, 1/5000) that specifically recognizes the Fc region of human antibody was added as a secondary antibody, and allowed to react at 37° C. for 1 hour. Then, the wells were washed with 0.05% PBS-T buffer solution four times to remove the remaining secondary antibodies.
Then, 50 μl of 2.5 M H₂SO₄ solution was added to each well to terminate the enzymatic reaction. After terminating the reaction, absorbance was measured at 450 nm (VERSAmax microplate reader, Molecular Devices).

T2 sequence (P11627 20-1123): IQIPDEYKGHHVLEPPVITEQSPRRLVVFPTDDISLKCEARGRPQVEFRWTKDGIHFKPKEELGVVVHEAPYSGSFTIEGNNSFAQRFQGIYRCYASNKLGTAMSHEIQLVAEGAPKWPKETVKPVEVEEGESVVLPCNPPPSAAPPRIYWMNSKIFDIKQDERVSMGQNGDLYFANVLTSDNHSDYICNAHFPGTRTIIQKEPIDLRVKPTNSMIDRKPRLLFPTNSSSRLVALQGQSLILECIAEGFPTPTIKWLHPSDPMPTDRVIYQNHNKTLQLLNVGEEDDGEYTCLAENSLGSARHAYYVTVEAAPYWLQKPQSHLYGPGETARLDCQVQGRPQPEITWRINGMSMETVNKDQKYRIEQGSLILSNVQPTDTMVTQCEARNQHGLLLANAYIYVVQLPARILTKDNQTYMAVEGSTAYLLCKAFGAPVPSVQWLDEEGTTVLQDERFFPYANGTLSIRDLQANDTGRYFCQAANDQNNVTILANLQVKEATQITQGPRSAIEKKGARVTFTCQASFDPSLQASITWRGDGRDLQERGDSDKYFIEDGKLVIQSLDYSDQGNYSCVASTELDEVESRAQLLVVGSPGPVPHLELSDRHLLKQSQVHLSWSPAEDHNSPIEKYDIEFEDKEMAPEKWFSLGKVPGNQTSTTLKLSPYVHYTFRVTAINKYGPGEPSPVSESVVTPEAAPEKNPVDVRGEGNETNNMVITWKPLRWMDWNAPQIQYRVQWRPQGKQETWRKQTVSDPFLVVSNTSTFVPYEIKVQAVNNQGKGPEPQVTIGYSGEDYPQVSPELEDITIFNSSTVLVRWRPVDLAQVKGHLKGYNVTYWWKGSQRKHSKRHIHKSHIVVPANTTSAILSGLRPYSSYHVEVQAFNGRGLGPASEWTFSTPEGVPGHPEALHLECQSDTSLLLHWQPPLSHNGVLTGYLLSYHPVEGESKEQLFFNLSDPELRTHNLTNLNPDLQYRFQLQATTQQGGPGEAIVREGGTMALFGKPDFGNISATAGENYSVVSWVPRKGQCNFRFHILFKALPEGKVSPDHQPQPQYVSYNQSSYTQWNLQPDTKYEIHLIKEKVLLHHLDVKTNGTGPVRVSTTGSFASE
T1 sequence (P32004 20-1112 limits assumed, form in doubt): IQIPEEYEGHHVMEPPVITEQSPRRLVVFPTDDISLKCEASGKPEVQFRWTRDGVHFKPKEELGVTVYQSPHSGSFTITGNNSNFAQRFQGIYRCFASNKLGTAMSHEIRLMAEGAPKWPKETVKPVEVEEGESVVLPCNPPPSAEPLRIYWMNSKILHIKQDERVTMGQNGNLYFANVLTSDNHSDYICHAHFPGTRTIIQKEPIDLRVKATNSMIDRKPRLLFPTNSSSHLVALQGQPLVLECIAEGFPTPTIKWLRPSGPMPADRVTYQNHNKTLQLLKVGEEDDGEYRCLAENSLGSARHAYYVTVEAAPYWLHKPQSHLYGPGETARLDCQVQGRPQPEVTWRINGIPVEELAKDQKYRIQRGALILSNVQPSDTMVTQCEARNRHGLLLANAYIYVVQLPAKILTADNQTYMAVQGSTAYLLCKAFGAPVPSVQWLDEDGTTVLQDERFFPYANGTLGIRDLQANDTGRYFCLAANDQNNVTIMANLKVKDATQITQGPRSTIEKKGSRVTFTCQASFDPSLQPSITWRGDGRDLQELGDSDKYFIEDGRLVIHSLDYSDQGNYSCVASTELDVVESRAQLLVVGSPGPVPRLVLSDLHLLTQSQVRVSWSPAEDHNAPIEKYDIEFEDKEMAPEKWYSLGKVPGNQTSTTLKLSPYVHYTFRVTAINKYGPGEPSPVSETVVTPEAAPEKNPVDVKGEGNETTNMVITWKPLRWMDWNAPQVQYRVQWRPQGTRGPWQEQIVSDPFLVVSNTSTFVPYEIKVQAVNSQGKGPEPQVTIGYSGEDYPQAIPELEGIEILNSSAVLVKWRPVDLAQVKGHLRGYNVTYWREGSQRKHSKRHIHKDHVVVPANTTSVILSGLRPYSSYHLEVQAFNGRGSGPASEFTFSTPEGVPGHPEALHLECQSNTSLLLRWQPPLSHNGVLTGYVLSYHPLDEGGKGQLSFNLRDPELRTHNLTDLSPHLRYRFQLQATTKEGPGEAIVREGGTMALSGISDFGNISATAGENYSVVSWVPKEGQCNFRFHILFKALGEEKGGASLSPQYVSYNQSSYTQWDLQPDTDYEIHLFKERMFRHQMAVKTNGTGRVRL

B1: Ab4M antibody (antibody, IgG1, V domains shown)
VH: EVQLVESGGGVVQPGRSLRLSCAASGFTFSRFGMHWVRQAPGKGLEWVAFISNDGSNKYYADSVKGRFTISRDNSKNTLYLQMNSLRPEDTAVYYCARGRAYGSGSLFDPWGQGTLVTVSS
VL: DIQLTQSPSSLSASVGDRVTITCRASRTISIYVNWYRQRPGKAPESLIYAASNLHSGVPSRFSGSGSGTDFTLTISSLQPEDFATYYCQQTHATRQYTFGQGTKLEIK
notes: Ab4 with V50F and H97A in VH and V75I, G84A and D93A in VK; Whole IgG (IgG1 vector pdCMV-dhfrC-Ab4M)
What does the source list for B1?
fold higher affinity than Ab4 [1]: ~45 fold; Kd [2]: 89.3 pM; koff [2]: 2.22e-05 s⁻¹; kon [2]: 249000 M⁻¹ s⁻¹; Kd [3]: 330 pM; koff [3]: 4.3e-05 s⁻¹; kon [3]: 130000 M⁻¹ s⁻¹; Kd [4]: 2900 pM; Kd [5]: 220 pM; fold higher affinity than Ab4 [5]: ~8 fold

B2: Ab417-H6L2 antibody (antibody, V domains shown)
VH: EVQLVESGGGVVQPGGSLRLSCAASGFTFSRFGMHWVRQAPGKGLEWVAFISNEGSNKYYADSVKGRFTISRDNSANTLYLQMNSLRAEDTAVYYCARGRAYGSGSLFDPWGQGTLVTVSS
VL: DIQLTQSPSSLSASVGDRVTITCRASRTISSYVNWYRQRPGKAPESLIYAASNLHSGVPSRFSGSGSGTDFTLTISSLQPEDFATYYCQQSIGRGVVTFGQGTKLEIK
notes: H6 is the Ab417 VH with R16G, D54E, K76A and P88A; L2 is the Ab417 VK with I31S; also called Ab417-H6L2 mutant; H6L2 mutant
B2 was tested. Which Kd [6] did it give?
The Kd was 220 pM.

What about the koff [6] of the same binder?
Its koff is 3.22e-05 s⁻¹.

What about the kon [6] of the same binder?
The kon was 146000 M⁻¹ s⁻¹.

And the Kd [7]?
The Kd was 131 pM.

And the koff [7]?
The koff was 2.67e-05 s⁻¹.

And the kon [7]?
Its kon is 204000 M⁻¹ s⁻¹.

B3: Ab417-H6L6 antibody (antibody, V domains shown)
VH: EVQLVESGGGVVQPGGSLRLSCAASGFTFSRFGMHWVRQAPGKGLEWVAFISNEGSNKYYADSVKGRFTISRDNSANTLYLQMNSLRAEDTAVYYCARGRAYGSGSLFDPWGQGTLVTVSS
VL: DIQLTQSPSSLSASVGDRVTITCRASRTISSYVNWYQQKPGQAPESLIYAASNLHSGVPSRFSGSGSGTDFTLTISSLQPEDFATYYCQQSIGRGVVTFGQGTKLEIK
notes: L6 is the Ab417 VK with I31S, R37Q, R39K and K42Q; also called Ab417-H6L6 mutant; H6L6 mutant
What does the source list for B3?
Kd [6]: 246 pM; koff [6]: 3.64e-05 s⁻¹; kon [6]: 148000 M⁻¹ s⁻¹; Kd [7]: 98.4 pM; koff [7]: 2.11e-05 s⁻¹; kon [7]: 214000 M⁻¹ s⁻¹

B4: R96A (antibody, V domains shown)
VH: EVQLVESGGGVVQPGRSLRLSCAASGFTFSRFGMHWVRQAPGKGLEWVAVISNDGSNKYYADSVKGRFTISRDNSKNTLYLQMNSLRPEDTAVYYCARGAHYGSGSLFDPWGQGTLVTVSS
VL: DIQLTQSPSSLSASVGDRVTITCRASRTISIYVNWYRQRPGKAPESLIYAASNLHSGVPSRFSGSGSGTDFTLTVSSLQPEDFGTYYCQQTHDTRQYTFGQGTKLEIK
notes: whole IgG; also called Ab4 VH R96A (HCDR3 alanine mutant); copies: 2 + 2
Does B4 bind [8]?
Result: no binding

B5: H97A mutant of Ab4 antibody (antibody, IgG1, name in Kabat numbering, V domains shown)
VH: EVQLVESGGGVVQPGRSLRLSCAASGFTFSRFGMHWVRQAPGKGLEWVAVISNDGSNKYYADSVKGRFTISRDNSKNTLYLQMNSLRPEDTAVYYCARGRAYGSGSLFDPWGQGTLVTVSS
VL: DIQLTQSPSSLSASVGDRVTITCRASRTISIYVNWYRQRPGKAPESLIYAASNLHSGVPSRFSGSGSGTDFTLTVSSLQPEDFGTYYCQQTHDTRQYTFGQGTKLEIK
notes: Whole IgG made in the pdCMV-dhfrC-Ab4 vector (IgG1); also called VH H97A mutant of Ab4
How did the Kd [4] turn out when B5 was run?
The Kd was 29000 pM.

B6: G99A (antibody, V domains shown)
VH: EVQLVESGGGVVQPGRSLRLSCAASGFTFSRFGMHWVRQAPGKGLEWVAVISNDGSNKYYADSVKGRFTISRDNSKNTLYLQMNSLRPEDTAVYYCARGRHYASGSLFDPWGQGTLVTVSS
VL: DIQLTQSPSSLSASVGDRVTITCRASRTISIYVNWYRQRPGKAPESLIYAASNLHSGVPSRFSGSGSGTDFTLTVSSLQPEDFGTYYCQQTHDTRQYTFGQGTKLEIK
notes: whole IgG; also called Ab4 VH G99A (HCDR3 alanine mutant); copies: 2 + 2
Does B6 bind [8]?
Result: no binding

B7: D93A mutant of Ab4 antibody (antibody, IgG1, V domains shown)
VH: EVQLVESGGGVVQPGRSLRLSCAASGFTFSRFGMHWVRQAPGKGLEWVAVISNDGSNKYYADSVKGRFTISRDNSKNTLYLQMNSLRPEDTAVYYCARGRHYGSGSLFDPWGQGTLVTVSS
VL: DIQLTQSPSSLSASVGDRVTITCRASRTISIYVNWYRQRPGKAPESLIYAASNLHSGVPSRFSGSGSGTDFTLTVSSLQPEDFGTYYCQQTHATRQYTFGQGTKLEIK
notes: Whole IgG made in the pdCMV-dhfrC-Ab4 vector (IgG1); also called VK D93A mutant
For B7, which Kd [4] is on record?
Its Kd is 30000 pM.

B8: Y98A (antibody, V domains shown)
VH: EVQLVESGGGVVQPGRSLRLSCAASGFTFSRFGMHWVRQAPGKGLEWVAVISNDGSNKYYADSVKGRFTISRDNSKNTLYLQMNSLRPEDTAVYYCARGRHAGSGSLFDPWGQGTLVTVSS
VL: DIQLTQSPSSLSASVGDRVTITCRASRTISIYVNWYRQRPGKAPESLIYAASNLHSGVPSRFSGSGSGTDFTLTVSSLQPEDFGTYYCQQTHDTRQYTFGQGTKLEIK
notes: whole IgG; also called Ab4 VH Y98A (HCDR3 alanine mutant); copies: 2 + 2
Does B8 bind [8]?
Result: no binding

B9: V50F/H97A mutant of Ab4 antibody (antibody, name in Kabat numbering, V domains shown)
VH: EVQLVESGGGVVQPGRSLRLSCAASGFTFSRFGMHWVRQAPGKGLEWVAFISNDGSNKYYADSVKGRFTISRDNSKNTLYLQMNSLRPEDTAVYYCARGRAYGSGSLFDPWGQGTLVTVSS
VL: DIQLTQSPSSLSASVGDRVTITCRASRTISIYVNWYRQRPGKAPESLIYAASNLHSGVPSRFSGSGSGTDFTLTVSSLQPEDFGTYYCQQTHDTRQYTFGQGTKLEIK
notes: also called VH V50F/H97A mutant
B9 was tested. Which Kd [4] did it give?
The Kd was 18000 pM.
